Target: TAG-72 antigen (tumor-associated glycoprotein 72) (human)
Assay: competition RIA against 125I-labeled CC49 IgG (competitor), TAG-72 in a human breast carcinoma extract

Substance: CC49/212 single-chain antigen-binding protein (monomer) (scFv)
- fold higher protein concentration needed to displace the labeled CC49 IgG (against unlabeled CC49 IgG and bivalent CC49/212): 10 fold

Source: patent publication US20060063715A1
